One data set deals with H. halys. The note with it: added to a trap containing the two principle components of the H. halys pheromone; cited from earlier work.
Data set [1] in a line: TPS activity assay of recombinant M. histrionica IDS-like proteins, GC-MS of hexane extracts. It is filed as biochemical, Murgantia histrionica. How it is done:
(§1) Assays with heterologously expressed protein were performed in assay buffer (see above) in a total volume of 250 μl with partially purified protein, 1 mM DTT, and 50 µM allylic substrate [(E,E)-, (Z,E)- or (Z,Z)-FPP] and incubated at 30° C. for 1 h with a 250 μL hexane overlay. Assays were stopped on ice and compounds extracted by mixing (vortex) at maximum speed for . . . 15 sec. Phases were separated by centrifugation at 4000×g for 10 min and the hexane phase was removed and dried over MgSO4 One μl of liquid sample was injected in splitless mode and analyzed by GC-MS. For identification of the MhTPS product, assays were scaled up by incubating 1 mL protein in a 7 mL screw top test tube and the obtained hexane extract was used for further analysis. To determine enzyme kinetic parameters, assays were performed in a final volume of 50 μL with 0.3 μg partially purified, E. coli expressed MhTPS enzyme and increasing concentrations of [1-3H]-(E,E)-FPP (64 uCi mmol-1). Assays were incubated in triplicate at 30° C. for 5 min prior to extraction of the reaction product with 250 μl hexane. Quantification of the radioactive product were as described by Tholl et al. (Tholl et al., 2005). Calculation of Km and Vmax values was performed by rectangular hyperbolic regression analysis using the Hyperbolic Regression Analysis (HYPER 1.01) software (J. S. Easterby, University of Liverpool).
(§2) GC-MS analysis was performed by liquid injection at 240° C. running in split 5 mode and separated on a GC-2010 gas chromatograph (Shimadzu, Kyoto, Japan) using a 30 m×0.25 mm i.d.×0.25 μm film Zebron ZB-XLB column coupled with a QP2010S mass spectrometer (Shimadzu). The GC program was as follows: 40° C. with 2 min hold, then raised to 220° C. at 5° C./min, then raised to 240° C. at 70° C./min followed by a 2 min hold time. Mass spectrometry was performed with an ion source temperature of 240° C., interface temperature of 280° C., electron ionization (EI) potential of 70 eV and scan range of 50 to 400 atomic mass units. Helium was used as a carrier gas at 1.9 mL/min. Terpene olefin products were identified by comparison of retention times and mass spectra with those of authentic standards.

Data set [2] is described as follows: Kinetic analysis of E. coli expressed MhTPS with [1-3H]-(E,E)-FPP. Format: biochemical, Murgantia histrionica. The settings on record: (E,E)-FPP as the substrate. The method, then: as §1
Data set [3] in a line: IDS (prenyltransferase) activity assay of recombinant M. histrionica proteins, LC-MS/MS. Format: biochemical, Murgantia histrionica. The note with it: IPP and DMAPP as substrates. The method, then:
For enzyme assays, 96 μl of partially purified protein were mixed with 2 μl 50 μM isopentenyl diphosphate (IPP; Sigma) and 2 μl 50 μM dimethylallyl diphosphate (DMAPP; Sigma) and incubated at 30° C. for 2 h. Analysis of IDS enzyme products was done using an Agilent 1260 HPLC system (Agilent Technologies) coupled to an API 5000 triple-quadrupole mass spectrometer (AB Sciex Instruments) according to the protocol described by Beran et al. (Beran et al., 2016).

Data set [4] is described as follows: IDS activity assay of recombinant H. halys HhIDS2, LC-MS. It is filed as biochemical, Halyomorpha halys. The note with it: IPP and DMAPP. How it is done: For enzyme assays, 96 μl of partially purified protein were mixed with 2 μl 50 μM isopentenyl diphosphate (IPP; Sigma) and 2 μl […] dimethylallyl diphosphate (DMAPP; Sigma) and incubated at 30° C. for 2 h. Analysis of IDS enzyme products was done using an Agilent 1260 HPLC system (Agilent Technologies) coupled to an API 5000 triple-quadrupole mass spectrometer (AB Sciex Instruments) according to the protocol described by Beran et al. (2016).

Data set [5] is described as follows: TPS activity assay of recombinant H. halys IDS-like proteins, GC-MS. It is filed as biochemical, Halyomorpha halys. The method, then:
Assays with heterologously expressed protein were performed in assay buffer (see above) in a total volume of 100 μl with partially purified protein, 1 mM DTT, and 50 μM allylic substrate [(E,E)-, (Z,E)- or (Z,Z)-FPP] and incubated at 30° C. for 1 h with a 100 μL hexane overlay. Assays were stopped on ice and compounds extracted by mixing (vortex) at maximum speed for 15 sec. Phases were separated by centrifugation at 4000×g for 10 min and the hexane phase was removed and dried over MgSO4. One μl of liquid sample was injected in splitless mode and analyzed by GC-MS.
as §2

`CCC\C=C/C=C/C=C/C(=O)OC` [MDT, methyl (E,E,Z)-2,4,6-decatrienoate]: the “increase in captured bugs” value in the data set with H. halys was 70%.

B1: MhTPS1: IDS-type sesquiterpene (sesquipiperitol) synthase of Murgantia histrionica, 385 aa, GenBank MG662378, SEQ ID NO: 1 (protein)
chain: MVSIAAKSLPKLSGAVFGQFSRRKQLIQRHWLDTRTDQYYDVLRRIVVPECKNIASDVPEYPERIEKLLYYTNPAFSDAWNFTTELIYRTVADESHQTEENITKMYLIRATMDLLFTMSAVLDDISDRSEFRKGKKGWHMICQGGESTALYDGTQMGLFPLYLLKQYFKNDPGYSRLLETVVMTYIKLTIGQTIDVLGQFKKSPSMAEYKRINYYKAGQFVAAGSELAVIHAGITSQDLIDKTVEIFTIAGQIIQTWDDFNDYYSSSEQNGKLSCDFMNAGTTWVSAKAMEVFTPSQAVKFMECYGSDDQSKMKTVQELYDEIDMPKLYTEYVLENYNRCETLIKELPHDRLREACSSYMEWLVVRETPDEDSEHKVALCLNISG
modifications: Murgantia histrionica “harlequin bug” Terpene Synthase (TPS)
The term kcat denotes the maximal rate divided by the concentration of active sites. What is called Km is the concentration of substrate that gives half-maximal velocity. With B1, the “sesquiterpene synthase activity, product” value in data set [1] ((E,E)-FPP as a substrate, N-terminal His-tag, E. coli) is on record as “a terpene alcohol as its main product”. In data set [1] ((E,E)-FPP as substrate), the “pH of highest activity” value stood at 7. For the same molecule, the sesquipiperitol production result in data set [1] ((Z,E)-FPP as substrate) is “at lower levels”. For the same molecule, the enzymatic activity entry in data set [1] ((Z,Z)-FPP as the substrate) is “almost no enzymatic activity”. Further, in data set [1] (GPP as substrate), the “conversion of GPP, products” value is listed as “several monoterpene olefins”. For the same molecule, the “increase of activity (relative amount of sesquipiperitol)” value in data set [1] (between 0.1 and 10 mM Mg^2+, (E,E)-FPP as substrate) was “approximately 2 fold”. In addition, in data set [1] (incubated with IPP and DMAPP), the “formation of terpene products” value is reported as “no formation of terpene products”. In data set [2], the Vmax is given as 675.3±53.7 pkat/mg and the kcat was 0.03 ± 0.003 s⁻¹. The Km in data set [2] (read-out: apparent Km) is 4 ± 0.7 µM. Moreover, the “IDS activity: formation of FPP” value in data set [3] is listed as “not observed”.

B2: HhIDS2: bona fide IDS enzyme of Halyomorpha halys making (E,E)-FPP, 403 amino acids, GenBank MG870389 (protein)
chain: MPFAKLCVQKLSNPLMKLCYPNLNGRLSLSKFSNSLDNSTFKFLSCNPHTICREHNTVAIRPQTITKDDKRDFMAVFPDIVRDLTQQDPGISDLSTLISKLMQYNVSGGKKVRGLTVVYSYRMLAPDHDLTPENIRLAQILGWCVEMLQGFFVVIDDLTDQSVTRRGRPCWYRLPGIGLRASSDALLIQAGTFQLLQQHCKDKEFYVDLVELFLDATRRTTYGQTLDLVSSFPNITHLTMDRYNFITKYKTSYYTFHLPVAIAMYMAGIYNTELHRQAKSVLLEMGHYFQVQDDYLDVFSDEEVSGKKGTDIQEGKCTWLAIIAFQRASPSQREILESCYGSKDPEKIQKVKDIFIEIGLPAVFHAYEEETYNLITRQIQQLSEGLPHELFLTLLHKMYGRKQ
modifications: HhFPPS
notes: bona fide IDS enzyme of Halyomorpha halys making (E,E)-FPP, 403 amino acids, GenBank MG870389
In the case of B2, the “IDS activity: product” value in data set [4] is listed as “only (E,E)-FPP”. For the same molecule, the terpene product formation result in data set [5] (FPP isomers as substrate) is “did not produce a terpene product”.

B3: HhIDS1: IDS-type sesquiterpene synthase of Halyomorpha halys, 377 amino acids, main product elemol, GenBank MG917093 (protein)
chain: MIPKTLGNFTGYVLRIALNKKHVNVRHKLDTDIGKYYQTLNDVVIPECMEFVKDAQGLPQRMKECIGYTTPYCYEGWNFCVELLYKTVADKPHQTEENLKKMRILRVLSDMSHSMHFILDDYADKAEFRQGKKIWASICEGGQEAAIYDTFTVNYLINCMLQRHFRNDPGFTKMCEMFSWVNGNSGIGQVLDILDHKNSDFSDYASWKNKVEYKSRNTMCAFPVLGLLHAGLTCNDLIHKTMDIFGDYGLMFQVWNDFMDFYSVQEESGKGNYDCKNNVKTWATITAMSHFNPAQAKEFRDCYGTNDPAKRSRVRELFDEIDLPRKYLDYLRNIRVTVEKKISELSDARVRDASTSYLEWLHGNGHHDVELEILKAP
modifications: HhTPS2
notes: IDS-type sesquiterpene synthase of Halyomorpha halys, 377 amino acids, main product elemol, GenBank MG917093
With B3, the sesquiterpene products result in data set [5] (either (E,E)-FPP or (Z,E)-FPP as substrates) was “several sesquiterpene olefins and alcohols at low abundance”.

(Values after patent US12618081B2, “Brown marmorated and harlequin stink bug pheromone enzyme synthesis and uses thereof” (VIRGINIA TECH INTELLECTUAL PROPERTIES, INC., priority 2019, dated 2026).)
